Measurements: patent US12281340B2, “Method of producing N-acyl-amino group-containing compound” (AJINOMOTO CO., INC., priority 2018, dated 2025)

Experiments:
Format in all cases: biochemical
Set-up in all cases: key: +: Detected; −: Not detected
[1] = Synthesis of N-lauroylamino acid / N-lauroylamino acid derivative using purified acylamino acid synthetase, UPLC-MS detection; conditions: +ATP
Description: 0.2 mL of a reaction solution containing 50 mM Tris-HCl, 5 mM amino acid or D-amino acid derivative, 5 mM sodium laurate, 10 mM ATP, 10 mM MgCl2, 1 mM DTT, 200 μg/mL of the purified enzyme, pH 8.0 was incubated at 25° C. for 24 hours. After completion of the reaction, 0.8 mL of the reaction stop solution (1% (v/v) phosphoric acid, 75% (v/v) methanol) was added, and the mixture was filtrated through the filter followed by being subjected to the UPLC-MS analysis to detect a signal of a molecular weight corresponding to an N-lauroyl-amino acid or an N-lauroyl-amino acid derivative. The condition for the UPLC-MS analysis is as described in Example 2.
As a result of the UPLC-MS analysis, the signal of the molecular weight corresponding to the N-lauroyl-amino acid or the N-lauroyl-amino acid derivative was confirmed in the reaction solution containing the enzyme in combination with the amino acid or the amino acid derivative shown in Table 5 below.

[2] = Synthesis of N-acylamino acids from various fatty acids using purified acylamino acid synthetase, UPLC-MS detection
Outline: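 Purified enzyme (200 μg/mL) with 5 mM amino acid, 5 mM sodium fatty acid (3 mM palmitate or stearate, plus 10% methanol), 10 mM ATP, 10 mM MgCl2, 1 mM DTT in 50 mM Tris-HCl pH 8.0, shaken 24 h at 25 °C. Amino acid varied by enzyme; product mass detected by UPLC-MS (ESI-negative).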

[3] = Synthesis of N-caprinoylamino acid using purified acylamino acid synthetase, UPLC-MS detection; conditions: +ATP
Outline: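 Purified enzyme (50 μg) with 5 mM amino acid, 5 mM sodium caprate, 10 mM ATP, 10 mM MgCl2, 1 mM DTT in Tris-HCl pH 8.0, 24 h at 25° C; product detected by UPLC-MS (ESI-negative) as the N-caprinoyl amino acid mass signal.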

[4] = Synthesis of N-lauroylamino acid / N-lauroylamino acid derivative using purified acylamino acid synthetase, UPLC-MS detection; conditions: +ATP; remark: listed apart in the source

B1: AtGH3-12: 4-substituted benzoates-glutamate ligase GH3.12 from Arabidopsis thaliana, His-tagged (protein, listed as Arabidopsis thaliana)
chain: MKPIFDINETFEKQLKDLTSNVKSIQDNLLEEIITPNTKTEYLQRFLIDRFDKELFKKNVPIVSYEDIKPYLDRVVNGESSDVISARTITGFLLSSGTSGGAQKMMPWNNKYLDNLTFIYDLRMQVITKHVKGVEEGKGMMFLFTKQESMTPSGLPARVATSSYFKSDYFKNRPSNWYYSYTSPDEVILCPNNTESLYCHLLCGLVQRDEVVRTGSIFASVMVRAIEVLKNSWEELCSNIRSGHLSNWVTDLGCQNSVSLVLGGPRPELADTIEEICNQNSWKGIVKRLWPNTKYIETVVTGSMGQYVPMLNYYCNDLPLVSTTYGSSETTFGINLDPLCKPEDVSYTFMPNMSYFEFIPMDGGDKNDVVDLEDVKLGCTYEPVVTNFAGLYRMRVGDIVLVTGFYNNAPQFKFVRRENVVLSIDSDKTNEEDLFKAVSQAKLVLESSGLDLKDFTSYADTSTFPGHYVVYLEVDTKEGEEKETAQFELDEEALSTCCLVMEESLDNVYKRCRFKDGSIGPLEIRVVRQGTFDSLMDFFISQGASTGQYKTPRCIKSGKALQVLETCVVAKFFSI
modifications: His-tag
notes: 4-substituted benzoates-glutamate ligase GH3.12 from Arabidopsis thaliana, His-tagged
+: signal of molecular weight corresponding to N-lauroyl amino acid ([1]; substrates L-Asp and sodium laurate) | signal of molecular weight corresponding to N-lauroyl amino acid ([1]; substrates L-Lys and sodium laurate) | signal of molecular weight corresponding to N-lauroyl amino acid ([1]; substrates L-Thr and sodium laurate) | signal of molecular weight corresponding to N-acylamino acid ([2]; substrates L-Asp and Capric acid) | signal of molecular weight corresponding to N-acylamino acid ([2]; substrates L-Asp and Caproic acid) | signal of molecular weight corresponding to N-acylamino acid ([2]; substrates L-Asp and Caprylic acid) | signal of molecular weight corresponding to N-acylamino acid ([2]; substrates L-Asp and Lauric acid) | signal of molecular weight corresponding to N-acylamino acid ([2]; substrates L-Asp and Linoleic acid) | signal of molecular weight corresponding to N-acylamino acid ([2]; substrates L-Asp and Palmitic acid) | signal of molecular weight corresponding to N-acylamino acid ([2]; substrates L-Asp and myristic acid) | signal of molecular weight corresponding to N-caprinoyl amino acid ([3]; substrates GABA and sodium caprate) | signal of molecular weight corresponding to N-caprinoyl amino acid ([3]; substrates Gly and sodium caprate) | signal of molecular weight corresponding to N-caprinoyl amino acid ([3]; substrates L-Ala and sodium caprate) | signal of molecular weight corresponding to N-caprinoyl amino acid ([3]; substrates L-Arg and sodium caprate) | signal of molecular weight corresponding to N-caprinoyl amino acid ([3]; substrates L-Asn and sodium caprate) | signal of molecular weight corresponding to N-caprinoyl amino acid ([3]; substrates L-Asp and sodium caprate) | signal of molecular weight corresponding to N-caprinoyl amino acid ([3]; substrates L-Cys and sodium caprate) | signal of molecular weight corresponding to N-caprinoyl amino acid ([3]; substrates L-Gln and sodium caprate) | signal of molecular weight corresponding to N-caprinoyl amino acid ([3]; substrates L-Glu and sodium caprate) | signal of molecular weight corresponding to N-caprinoyl amino acid ([3]; substrates L-His and sodium caprate) | signal of molecular weight corresponding to N-caprinoyl amino acid ([3]; substrates L-Ile and sodium caprate) | signal of molecular weight corresponding to N-caprinoyl amino acid ([3]; substrates L-Leu and sodium caprate) | signal of molecular weight corresponding to N-caprinoyl amino acid ([3]; substrates L-Lys and sodium caprate) | signal of molecular weight corresponding to N-caprinoyl amino acid ([3]; substrates L-Met and sodium caprate) | signal of molecular weight corresponding to N-caprinoyl amino acid ([3]; substrates L-Phe and sodium caprate) | signal of molecular weight corresponding to N-caprinoyl amino acid ([3]; substrates L-Pro and sodium caprate) | signal of molecular weight corresponding to N-caprinoyl amino acid ([3]; substrates L-Ser and sodium caprate) | signal of molecular weight corresponding to N-caprinoyl amino acid ([3]; substrates L-Thr and sodium caprate) | signal of molecular weight corresponding to N-caprinoyl amino acid ([3]; substrates L-Trp and sodium caprate) | signal of molecular weight corresponding to N-caprinoyl amino acid ([3]; substrates L-Tyr and sodium caprate) | signal of molecular weight corresponding to N-caprinoyl amino acid ([3]; substrates L-Val and sodium caprate) | signal of molecular weight corresponding to N-caprinoyl amino acid ([3]; substrates β-Ala and sodium caprate) | signal of molecular weight corresponding to N-lauroyl amino acid derivative ([4]; substrates Taurine and sodium laurate)
−: signal of molecular weight corresponding to N-lauroyl amino acid ([1]; substrates Gly and sodium laurate) | signal of molecular weight corresponding to N-lauroyl amino acid ([1]; substrates L-Ala and sodium laurate) | signal of molecular weight corresponding to N-lauroyl amino acid ([1]; substrates L-Arg and sodium laurate) | signal of molecular weight corresponding to N-lauroyl amino acid ([1]; substrates L-Glu and sodium laurate) | signal of molecular weight corresponding to N-lauroyl amino acid ([1]; substrates β-Ala and sodium laurate) | signal of molecular weight corresponding to N-lauroyl amino acid derivative ([4]; substrates Sarcosine and sodium laurate)
